Assay results from the supplement of paper PMC10065799, “High-throughput profiling of sequence recognition by tyrosine kinases and SH2 domains using bacterial peptide display” (eLife, 2023).
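Also: 11-residue human phosphosite peptides and single-mutation variants displayed on the E. coli surface, counted by deep sequencing, each peptide's frequency after selection divided by its frequency in the unselected input library; frequency after pTyr selection over input frequency; kinase dosed for 20-30% of maximal phosphorylation in three min.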

The sequences below were run against FGFR1 (UniProt P11362) (assay: phosphorylation enrichment, bacterial display (enrichment ratio); higher = better substrate or ligand; peptides without Tyr show the background).
Chain of FGFR1 (P11362 whole entry, looked up): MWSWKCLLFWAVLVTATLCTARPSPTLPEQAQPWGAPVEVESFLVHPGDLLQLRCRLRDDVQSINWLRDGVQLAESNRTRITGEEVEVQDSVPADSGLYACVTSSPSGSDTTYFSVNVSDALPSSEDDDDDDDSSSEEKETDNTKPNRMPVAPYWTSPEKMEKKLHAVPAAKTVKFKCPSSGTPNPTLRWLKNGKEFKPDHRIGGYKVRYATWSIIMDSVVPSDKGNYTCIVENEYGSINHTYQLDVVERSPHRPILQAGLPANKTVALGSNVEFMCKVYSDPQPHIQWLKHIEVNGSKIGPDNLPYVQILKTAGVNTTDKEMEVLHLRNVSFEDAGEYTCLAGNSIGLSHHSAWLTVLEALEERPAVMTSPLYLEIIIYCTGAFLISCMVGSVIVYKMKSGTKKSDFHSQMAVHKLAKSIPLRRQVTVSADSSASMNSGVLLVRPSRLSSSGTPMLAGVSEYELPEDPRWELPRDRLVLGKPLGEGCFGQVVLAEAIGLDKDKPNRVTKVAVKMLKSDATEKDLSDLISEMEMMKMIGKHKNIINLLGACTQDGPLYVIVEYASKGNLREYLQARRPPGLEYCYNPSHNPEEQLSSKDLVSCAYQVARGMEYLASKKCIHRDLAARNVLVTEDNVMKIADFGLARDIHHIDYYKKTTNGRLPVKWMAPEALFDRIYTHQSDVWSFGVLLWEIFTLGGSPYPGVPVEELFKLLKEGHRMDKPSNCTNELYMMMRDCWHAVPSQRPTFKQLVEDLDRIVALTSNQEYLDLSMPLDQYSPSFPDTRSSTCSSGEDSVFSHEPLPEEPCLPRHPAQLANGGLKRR
RPFRPYIIRGM [LRP5_Y1531_YF] was tested, and the phosphorylation enrichment was 1.03. Work on RHSGSYLVTSV [APC_Y2838] yielded a phosphorylation enrichment of 0.438. Work on KAWTIYRPEDS [ZBP1_Y165] yielded a phosphorylation enrichment of 0.539. Sequence SRVTQYERNFE [SNX1_Y463_D466N] has a phosphorylation enrichment of 0.453. PQGVRYIFTID [DCX_Y103_YF] was tested, and the phosphorylation enrichment was 0.61. AQQPIYIRVEG [NLRP7_Y318_V319I] gave a phosphorylation enrichment of 0.652. NVDGKYSFLKV [GRM3_Y478_G475D_YF] showed a phosphorylation enrichment of 0.426. For LRGEDCGFSVD [PRKCI_Y430_Y430C], the phosphorylation enrichment was 0.847. In the case of VDASYCGGRGV [ANTXR2_Y381_Y381C], the phosphorylation enrichment is reported as 0.405. With VTPVMYTYDEY [COL10A1_Y623_G618V] the phosphorylation enrichment was 0.637. For IRDLKYTIENP [SND1_Y178], the phosphorylation enrichment was 0.776. AVSEGYKDFRA [CDA_Y79] gave a phosphorylation enrichment of 0.519. For GHLYACDWISI [BEST1_Y227_Y227C], the phosphorylation enrichment was 0.902. LKYAIYFEVRE [LAMA2_Y1258_A1261V] showed a phosphorylation enrichment of 1.09. Sequence PRARTYCYKQE [KLHDC9_Y175_S171R] has a phosphorylation enrichment of 0.497. Work on DTKDDYSALSV [IL17RB_Y457_N458S] yielded a phosphorylation enrichment of 0.715. ADEEEYEIIAA [FEStide_E_2014] was tested, and the phosphorylation enrichment was 0.635. With KHCEDYVFSYN [DSC1_Y846_C848F] the phosphorylation enrichment was 2.41. For TDLAFYLVREG [ASL_Y376_K380E_YF], the phosphorylation enrichment was 0.574. In the case of SLQSEYVHYGG [CDC14A_Y591], the phosphorylation enrichment is reported as 0.811. CQAHGYFCQPI [STK11_Y156_L160P] gave a phosphorylation enrichment of 0.646. NHQFDYTFHWT [CSNK1A1_Y294_D297H_YF] was tested, and the phosphorylation enrichment was 3.83. Work on EEVKAYLDFGE [CHAC2_Y78_R82G] yielded a phosphorylation enrichment of 0.473. With ENAGYYFRVSA the phosphorylation enrichment was 0.508. NTPNTYLRVNV [ADD2_Y440] was tested, and the phosphorylation enrichment was 0.44. Sequence ALIKAYVKAVA [SMN1_Y43_D44V] has a phosphorylation enrichment of 0.623. With VMTLDYSKTVV [SETD2_Y770_V768L] the phosphorylation enrichment was 0.419. Sequence GINDDYGQLKN [NBN_Y679] has a phosphorylation enrichment of 0.499. In the case of SLQSEYVHFGG [CDC14A_Y591_YF], the phosphorylation enrichment is reported as 1.36. With KAIMTYVSSFY [ACTN4_Y260] the phosphorylation enrichment was 0.489. In the case of YSNKLYYQLEQ [PDPR_Y109], the phosphorylation enrichment is reported as 8.28. Sequence SDVDLYQVRIA [PSMD9_Y70_T74I] has a phosphorylation enrichment of 0.598. In the case of LENSTYQFIHV [CRB1_Y760_R764H_YF], the phosphorylation enrichment is reported as 7.91.

What follows are sequences tested on c-Src in the same assay as above.
RPFRPYIIRGM [LRP5_Y1531_YF] gave a phosphorylation enrichment of 0.647. Work on RHSGSYLVTSV [APC_Y2838] yielded a phosphorylation enrichment of 0.463. In the case of KAWTIYRPEDS [ZBP1_Y165], the phosphorylation enrichment is reported as 0.566. Work on SRVTQYERNFE [SNX1_Y463_D466N] yielded a phosphorylation enrichment of 0.377. Sequence PQGVRYIFTID [DCX_Y103_YF] has a phosphorylation enrichment of 0.587. Sequence AQQPIYIRVEG [NLRP7_Y318_V319I] has a phosphorylation enrichment of 0.793. With NVDGKYSFLKV [GRM3_Y478_G475D_YF] the phosphorylation enrichment was 0.439. Sequence LRGEDCGFSVD [PRKCI_Y430_Y430C] has a phosphorylation enrichment of 1.48. VDASYCGGRGV [ANTXR2_Y381_Y381C] gave a phosphorylation enrichment of 0.476. For VTPVMYTYDEY [COL10A1_Y623_G618V], the phosphorylation enrichment was 2.22. Work on IRDLKYTIENP [SND1_Y178] yielded a phosphorylation enrichment of 0.47. Work on AVSEGYKDFRA [CDA_Y79] yielded a phosphorylation enrichment of 0.338. Sequence GHLYACDWISI [BEST1_Y227_Y227C] has a phosphorylation enrichment of 1.34. In the case of LKYAIYFEVRE [LAMA2_Y1258_A1261V], the phosphorylation enrichment is reported as 1.45. PRARTYCYKQE [KLHDC9_Y175_S171R] was tested, and the phosphorylation enrichment was 0.667. Work on DTKDDYSALSV [IL17RB_Y457_N458S] yielded a phosphorylation enrichment of 0.473. ADEEEYEIIAA [FEStide_E_2014] showed a phosphorylation enrichment of 0.724. Work on KHCEDYVFSYN [DSC1_Y846_C848F] yielded a phosphorylation enrichment of 1.77. With TDLAFYLVREG [ASL_Y376_K380E_YF] the phosphorylation enrichment was 0.519. SLQSEYVHYGG [CDC14A_Y591] was tested, and the phosphorylation enrichment was 0.848. CQAHGYFCQPI [STK11_Y156_L160P] showed a phosphorylation enrichment of 0.404. For NHQFDYTFHWT [CSNK1A1_Y294_D297H_YF], the phosphorylation enrichment was 0.996. EEVKAYLDFGE [CHAC2_Y78_R82G] was tested, and the phosphorylation enrichment was 0.574. For ENAGYYFRVSA, the phosphorylation enrichment was 0.322. With NTPNTYLRVNV [ADD2_Y440] the phosphorylation enrichment was 0.436. ALIKAYVKAVA [SMN1_Y43_D44V] showed a phosphorylation enrichment of 0.557. With VMTLDYSKTVV [SETD2_Y770_V768L] the phosphorylation enrichment was 0.415. Sequence GINDDYGQLKN [NBN_Y679] has a phosphorylation enrichment of 0.613. SLQSEYVHFGG [CDC14A_Y591_YF] was tested, and the phosphorylation enrichment was 0.889. KAIMTYVSSFY [ACTN4_Y260] gave a phosphorylation enrichment of 0.612. With YSNKLYYQLEQ [PDPR_Y109] the phosphorylation enrichment was 3.28. Sequence SDVDLYQVRIA [PSMD9_Y70_T74I] has a phosphorylation enrichment of 2.13. Sequence LENSTYQFIHV [CRB1_Y760_R764H_YF] has a phosphorylation enrichment of 4.21.

Each sequence was assayed against EPHB2 (UniProt P29323) in the same assay as above.
Chain of EPHB2 (P29323 whole entry, looked up): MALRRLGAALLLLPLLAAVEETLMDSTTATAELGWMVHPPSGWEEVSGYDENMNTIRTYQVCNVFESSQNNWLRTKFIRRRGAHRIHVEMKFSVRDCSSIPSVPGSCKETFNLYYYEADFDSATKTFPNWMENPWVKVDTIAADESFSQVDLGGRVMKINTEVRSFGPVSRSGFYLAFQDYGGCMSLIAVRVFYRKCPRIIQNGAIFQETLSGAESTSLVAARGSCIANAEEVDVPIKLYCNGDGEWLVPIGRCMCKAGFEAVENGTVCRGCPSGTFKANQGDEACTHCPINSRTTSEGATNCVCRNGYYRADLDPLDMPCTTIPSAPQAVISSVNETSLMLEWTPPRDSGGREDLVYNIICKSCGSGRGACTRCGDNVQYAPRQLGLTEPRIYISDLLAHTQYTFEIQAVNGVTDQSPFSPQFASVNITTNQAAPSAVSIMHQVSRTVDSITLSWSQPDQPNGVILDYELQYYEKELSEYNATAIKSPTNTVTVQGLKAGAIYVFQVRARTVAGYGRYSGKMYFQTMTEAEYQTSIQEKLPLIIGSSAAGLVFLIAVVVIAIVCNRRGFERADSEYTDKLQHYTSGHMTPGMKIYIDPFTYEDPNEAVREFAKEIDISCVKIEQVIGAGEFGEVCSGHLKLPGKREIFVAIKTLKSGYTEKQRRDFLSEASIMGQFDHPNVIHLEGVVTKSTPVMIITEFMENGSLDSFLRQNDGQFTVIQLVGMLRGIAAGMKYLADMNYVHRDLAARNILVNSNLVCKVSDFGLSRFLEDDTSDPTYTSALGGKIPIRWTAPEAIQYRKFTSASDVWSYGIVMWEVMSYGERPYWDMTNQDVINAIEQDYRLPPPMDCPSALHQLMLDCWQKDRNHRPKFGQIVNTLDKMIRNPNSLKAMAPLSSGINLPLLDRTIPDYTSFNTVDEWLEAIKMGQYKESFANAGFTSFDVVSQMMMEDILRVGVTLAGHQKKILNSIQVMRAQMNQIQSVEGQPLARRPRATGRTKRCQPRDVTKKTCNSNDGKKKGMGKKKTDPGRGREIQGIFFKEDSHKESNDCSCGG
RPFRPYIIRGM [LRP5_Y1531_YF] gave a phosphorylation enrichment of 0.709. Sequence RHSGSYLVTSV [APC_Y2838] has a phosphorylation enrichment of 0.559. Sequence KAWTIYRPEDS [ZBP1_Y165] has a phosphorylation enrichment of 0.512. SRVTQYERNFE [SNX1_Y463_D466N] gave a phosphorylation enrichment of 0.387. With PQGVRYIFTID [DCX_Y103_YF] the phosphorylation enrichment was 0.524. AQQPIYIRVEG [NLRP7_Y318_V319I] was tested, and the phosphorylation enrichment was 1.2. In the case of NVDGKYSFLKV [GRM3_Y478_G475D_YF], the phosphorylation enrichment is reported as 0.356. Sequence LRGEDCGFSVD [PRKCI_Y430_Y430C] has a phosphorylation enrichment of 1.14. VDASYCGGRGV [ANTXR2_Y381_Y381C] showed a phosphorylation enrichment of 0.28. VTPVMYTYDEY [COL10A1_Y623_G618V] was tested, and the phosphorylation enrichment was 0.798. With IRDLKYTIENP [SND1_Y178] the phosphorylation enrichment was 0.522. In the case of AVSEGYKDFRA [CDA_Y79], the phosphorylation enrichment is reported as 0.456. GHLYACDWISI [BEST1_Y227_Y227C] was tested, and the phosphorylation enrichment was 0.929. In the case of LKYAIYFEVRE [LAMA2_Y1258_A1261V], the phosphorylation enrichment is reported as 1.23. PRARTYCYKQE [KLHDC9_Y175_S171R] showed a phosphorylation enrichment of 0.574. In the case of DTKDDYSALSV [IL17RB_Y457_N458S], the phosphorylation enrichment is reported as 0.663. ADEEEYEIIAA [FEStide_E_2014] showed a phosphorylation enrichment of 0.683. KHCEDYVFSYN [DSC1_Y846_C848F] gave a phosphorylation enrichment of 0.719. Work on TDLAFYLVREG [ASL_Y376_K380E_YF] yielded a phosphorylation enrichment of 0.703. SLQSEYVHYGG [CDC14A_Y591] showed a phosphorylation enrichment of 0.973. Work on CQAHGYFCQPI [STK11_Y156_L160P] yielded a phosphorylation enrichment of 0.436. NHQFDYTFHWT [CSNK1A1_Y294_D297H_YF] was tested, and the phosphorylation enrichment was 1.3. EEVKAYLDFGE [CHAC2_Y78_R82G] showed a phosphorylation enrichment of 0.535. For ENAGYYFRVSA, the phosphorylation enrichment was 0.665. In the case of NTPNTYLRVNV [ADD2_Y440], the phosphorylation enrichment is reported as 0.47. ALIKAYVKAVA [SMN1_Y43_D44V] showed a phosphorylation enrichment of 0.534. With VMTLDYSKTVV [SETD2_Y770_V768L] the phosphorylation enrichment was 0.52. GINDDYGQLKN [NBN_Y679] was tested, and the phosphorylation enrichment was 0.514. SLQSEYVHFGG [CDC14A_Y591_YF] gave a phosphorylation enrichment of 0.746. For KAIMTYVSSFY [ACTN4_Y260], the phosphorylation enrichment was 0.666. For YSNKLYYQLEQ [PDPR_Y109], the phosphorylation enrichment was 2.11. SDVDLYQVRIA [PSMD9_Y70_T74I] was tested, and the phosphorylation enrichment was 0.497. With LENSTYQFIHV [CRB1_Y760_R764H_YF] the phosphorylation enrichment was 2.92.

What follows are sequences tested against Fes (UniProt P07332) in the same assay as above.
Chain of Fes (P07332 whole entry, looked up): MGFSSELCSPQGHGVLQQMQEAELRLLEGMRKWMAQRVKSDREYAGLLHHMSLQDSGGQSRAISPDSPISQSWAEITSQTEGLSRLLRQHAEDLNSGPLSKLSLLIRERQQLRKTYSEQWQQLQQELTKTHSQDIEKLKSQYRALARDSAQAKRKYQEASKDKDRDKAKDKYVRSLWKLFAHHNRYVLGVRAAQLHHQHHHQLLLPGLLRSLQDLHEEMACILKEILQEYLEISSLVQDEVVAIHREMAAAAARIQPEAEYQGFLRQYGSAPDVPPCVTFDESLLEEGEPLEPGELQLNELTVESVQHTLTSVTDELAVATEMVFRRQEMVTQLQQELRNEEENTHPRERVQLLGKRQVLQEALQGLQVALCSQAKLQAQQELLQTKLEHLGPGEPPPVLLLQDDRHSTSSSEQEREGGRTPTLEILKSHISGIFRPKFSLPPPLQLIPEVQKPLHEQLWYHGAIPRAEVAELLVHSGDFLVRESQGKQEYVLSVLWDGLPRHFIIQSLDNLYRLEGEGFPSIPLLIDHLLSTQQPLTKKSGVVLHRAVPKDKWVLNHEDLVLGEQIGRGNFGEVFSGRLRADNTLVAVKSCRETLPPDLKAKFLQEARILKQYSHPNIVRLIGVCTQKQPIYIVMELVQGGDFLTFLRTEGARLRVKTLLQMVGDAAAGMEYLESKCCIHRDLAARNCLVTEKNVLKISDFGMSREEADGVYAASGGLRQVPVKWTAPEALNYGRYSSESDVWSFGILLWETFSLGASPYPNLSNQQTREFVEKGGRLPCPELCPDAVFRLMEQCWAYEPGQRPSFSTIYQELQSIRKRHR
RPFRPYIIRGM [LRP5_Y1531_YF] was tested, and the phosphorylation enrichment was 1.2. Work on RHSGSYLVTSV [APC_Y2838] yielded a phosphorylation enrichment of 0.863. KAWTIYRPEDS [ZBP1_Y165] gave a phosphorylation enrichment of 1.15. Work on SRVTQYERNFE [SNX1_Y463_D466N] yielded a phosphorylation enrichment of 0.813. In the case of PQGVRYIFTID [DCX_Y103_YF], the phosphorylation enrichment is reported as 3.66. Sequence AQQPIYIRVEG [NLRP7_Y318_V319I] has a phosphorylation enrichment of 1.18. Sequence NVDGKYSFLKV [GRM3_Y478_G475D_YF] has a phosphorylation enrichment of 0.824. LRGEDCGFSVD [PRKCI_Y430_Y430C] was tested, and the phosphorylation enrichment was 2.77. VDASYCGGRGV [ANTXR2_Y381_Y381C] was tested, and the phosphorylation enrichment was 0.63. Work on VTPVMYTYDEY [COL10A1_Y623_G618V] yielded a phosphorylation enrichment of 1.05. IRDLKYTIENP [SND1_Y178] showed a phosphorylation enrichment of 1.38. AVSEGYKDFRA [CDA_Y79] was tested, and the phosphorylation enrichment was 0.689. Work on GHLYACDWISI [BEST1_Y227_Y227C] yielded a phosphorylation enrichment of 1.43. LKYAIYFEVRE [LAMA2_Y1258_A1261V] gave a phosphorylation enrichment of 2.57. Work on PRARTYCYKQE [KLHDC9_Y175_S171R] yielded a phosphorylation enrichment of 1.01. Work on DTKDDYSALSV [IL17RB_Y457_N458S] yielded a phosphorylation enrichment of 1.09. ADEEEYEIIAA [FEStide_E_2014] gave a phosphorylation enrichment of 1.32. Sequence KHCEDYVFSYN [DSC1_Y846_C848F] has a phosphorylation enrichment of 1.31. In the case of TDLAFYLVREG [ASL_Y376_K380E_YF], the phosphorylation enrichment is reported as 1.59. SLQSEYVHYGG [CDC14A_Y591] was tested, and the phosphorylation enrichment was 0.774. For CQAHGYFCQPI [STK11_Y156_L160P], the phosphorylation enrichment was 0.678. With NHQFDYTFHWT [CSNK1A1_Y294_D297H_YF] the phosphorylation enrichment was 1.08. EEVKAYLDFGE [CHAC2_Y78_R82G] was tested, and the phosphorylation enrichment was 1.32. Work on ENAGYYFRVSA yielded a phosphorylation enrichment of 1.26. Sequence NTPNTYLRVNV [ADD2_Y440] has a phosphorylation enrichment of 0.98. Sequence ALIKAYVKAVA [SMN1_Y43_D44V] has a phosphorylation enrichment of 0.995. For VMTLDYSKTVV [SETD2_Y770_V768L], the phosphorylation enrichment was 0.738. For GINDDYGQLKN [NBN_Y679], the phosphorylation enrichment was 1.1. SLQSEYVHFGG [CDC14A_Y591_YF] gave a phosphorylation enrichment of 0.963. In the case of KAIMTYVSSFY [ACTN4_Y260], the phosphorylation enrichment is reported as 1.05. With YSNKLYYQLEQ [PDPR_Y109] the phosphorylation enrichment was 1.09. In the case of SDVDLYQVRIA [PSMD9_Y70_T74I], the phosphorylation enrichment is reported as 0.892. For LENSTYQFIHV [CRB1_Y760_R764H_YF], the phosphorylation enrichment was 2.22.
